These results are taken from US20230357411A1 (published 2023).

For test [1], the target named is TrkA protein on the surface of NIH-3T3-TrkA cells. The experiment in a line: cell-based or functional assay.
Test [2] concerns the target CD16 receptor (Fc gamma RIIIA) on Jurkat-NFAT-Luc-CD16 cells (UniProt P08637 17-254, limits assumed). The experiment in a line: cell-based or functional assay.
For test [3], the target named is T1, Mouse-TrKA on the surface of HEK293T-MouseTrKA cells (mouse, UniProt Q3UFB7 34-799).
T1 construct: whole, on cells
The experiment in a line: flow cytometry competition: inhibition of biotinylated Mouse-NGF binding to HEK293T-MouseTrkA cells. From the text:
Mouse-NGF was biotinylated, and Mouse-NGF could bind to the extracellular region of Mouse-TrkA protein on HEK293T-MouseTrkA cells, and anti-TrkA monoclonal antibodies could also bind to the extracellular region of Mouse-TrkA protein on HEK293T-MouseTrkA cells. […] In the FIG. 5, the parent% value reflected the Mouse-NGF signal that bound to the extracellular region of the Mouse-TrKA protein on HEK293T-MouseTrkA cells.
On the technique in general: In flow cytometry, cells or beads pass a laser one at a time.

For test [4], the target named is T1, Mouse-TrKA on the surface of …. The experiment in a line: flow cytometry on HEK293T-MouseTrkA cells. The procedure: (§1) Lentiviral technology was used to construct HEK293T-MouseTrkA cell model. […] Flow cytometry was used to detect the binding of each concentration gradient humanized antibody to the […] on the surface of HEK293T-MouseTrKA cells, and the binding ability of each humanized antibody to Mouse-TrKA was evaluated at the cellular level. In the FIG. 3, the EC50 (half binding concentration) value reflected the binding ability of the antibody to Mouse-TrKA; the smaller the EC50 value, the stronger the binding ability of the antibody to Mouse-TrKA, and the higher the affinity of the antibody. It was generally believed that the EC50 value of high-affinity antibodies was lower than 1.5 μg/mL.

Test [5] deals with T2, Human-TrKA receptor on the surface of HEK293T-HumanTrKA cells (human, UniProt P04629 33-796).
T2 construct: whole, on cells
The experiment in a line: flow cytometry competition: inhibition of biotinylated Human-NGF binding to HEK293T-HumanTrkA cells. From the text:
Human-NGF was biotinylated, and Human-NGF could bind to the extracellular region of Human-TrkA protein on HEK293T-HumanTrkA cells, and anti-TrkA monoclonal antibodies could also bind to the extracellular region of Human-TrkA protein on HEK293T-HumanTrkA cells. […] In the FIG. 4, the parent% value reflected the Human-NGF signal that bound to the extracellular region of the Human-TrKA protein on HEK293T-HumanTrkA cells.

For test [6], the target named is T2, Human-TrKA receptor on the surface of …. The experiment in a line: flow cytometry on HEK293T-HumanTrkA cells. The procedure: as §1, with “HEK293T-HumanTrkA” for “HEK293T-MouseTrkA”, “HEK293T-HumanTrKA” for “HEK293T-MouseTrKA”, “Human-TrKA” for “Mouse-TrKA”, “2,” for “3,”, “Human-TrKA;” for “Mouse-TrKA;”, “Human-TrKA,” for “Mouse-TrKA,”

B1: humanized anti-TrkA monoclonal antibody H1L1-IgG1 (antibody)
VH: EVQLLESGGGLVQPGGSLKLSCKASGYAFTNYWLGWMKQRPGHGLEWIGDFYPRTGNTFYNENFKGKVTLTADKSSNTAYMQLSSLTSEDSAVYLCARAGTGFDYWGQGTTLTVSS
light: EIVMTQSPATLSLSVGERVTLSCKASENVGGYVSWYQQKPDQSPKLLIYGASSRHTGVPDRFTGSGSETDFTLTISSVQAEDLAAYHCGQNYIYPFTFGGGTKLEIKRTVAAPSVFIFPPSDEQLKSGTASVVCLLNNFYPREAKVQWKVDNALQSGNSQESVTEQDSKDSTYSLSSTLTLSKADYEKHKVYACEVTHQGLSSPVTKSFNRGEC
B1: the “CDC activity, killing of NIH-3T3-TrKA cells (CCK8 cell viability), half-peak concentration IC50” value in test [1] worked out at 0.222 µg/mL. Besides, the “ADCC activity, luciferase reporter (Mean Value), half of the peak concentration EC50” value in test [2] is 0.0228 µg/mL.

B2: humanized anti-TrkA monoclonal antibody H1L1-IgG4 (antibody)
heavy: EVQLLESGGGLVQPGGSLKLSCKASGYAFTNYWLGWMKQRPGHGLEWIGDFYPRTGNTFYNENFKGKVTLTADKSSNTAYMQLSSLTSEDSAVYLCARAGTGFDYWGQGTTLTVSSASTKGPSVFPLAPCSRSTSESTAALGCLVKDYFPEPVTVSWNSGALTSGVHTFPAVLQSSGLYSLSSVVTVPSSSLGTKTYTCNVDHKPSNTKVDKRVESKYGPPCPPCPAPEAAGGPSVFLFPPKPKDTLMISRTPEVTCVVVDVSQEDPEVQFNWYVDGVEVHNAKTKPREEQFNSTYRVVSVLTVLHQDWLNGKEYKCKVSNKGLPSSIEKTISKAKGQPREPQVYTLPPSQEEMTKNQVSLTCLVKGFYPSDIAVEWESNGQPENNYKTTPPVLDSDGSFFLYSKLTVDKSRWQEGNVFSCSVMHEALHNHYTQKSLSLSLG
light: EIVMTQSPATLSLSVGERVTLSCKASENVGGYVSWYQQKPDQSPKLLIYGASSRHTGVPDRFTGSGSETDFTLTISSVQAEDLAAYHCGQNYIYPFTFGGGTKLEIKRTVAAPSVFIFPPSDEQLKSGTASVVCLLNNFYPREAKVQWKVDNALQSGNSQESVTEQDSKDSTYSLSSTLTLSKADYEKHKVYACEVTHQGLSSPVTKSFNRGEC
notes: H1 + L1, IGHG4 heavy chain isotype (mutated Fc), kappa light chain
What is called IC50 is the point on the concentration scale where inhibition reaches its midpoint. Lower therefore signals greater potency. The EC50 is the midpoint of the concentration-response curve. The low end stands for a more potent agent, the high end for a less potent agent. Consider B2, for which the IC50 in test [3] was found to be 0.385 µg/mL. The molecule further gave an EC50 in test [4] of 0.134 µg/mL. In addition, the “down-regulation of the level of TrkA protein tyrosine phosphorylation under NGF stimulation (AlphaLISA, p-TrkA), IC50” value in test [1] was 0.0207 µg/mL.

B3: human-mouse chimeric anti-TrkA monoclonal antibody 23E12 (H0L0-IgG4) (antibody)
heavy: QVQLQQSGAELVRPGTSVKISCKASGYAFTNYWLGWMKQRPGHGLEWIGDFYPRTGNTFYNENFKGKVTLTADKSSNTAYMQLSSLTSEDSAVYLCARAGTGFDYWGQGTTLTVSSASTKGPSVFPLAPCSRSTSESTAALGCLVKDYFPEPVTVSWNSGALTSGVHTFPAVLQSSGLYSLSSVVTVPSSSLGTKTYTCNVDHKPSNTKVDKRVESKYGPPCPPCPAPEAAGGPSVFLFPPKPKDTLMISRTPEVTCVVVDVSQEDPEVQFNWYVDGVEVHNAKTKPREEQFNSTYRVVSVLTVLHQDWLNGKEYKCKVSNKGLPSSIEKTISKAKGQPREPQVYTLPPSQEEMTKNQVSLTCLVKGFYPSDIAVEWESNGQPENNYKTTPPVLDSDGSFFLYSKLTVDKSRWQEGNVFSCSVMHEALHNHYTQKSLSLSLG
light: SIVMTQSPKSMSMSVGERVTLSCKASENVGGYVSWYQQKPDQSPKLLIYGASSRHTGVPDRFTGSGSETDFTLTISSVQAEDLAAYHCGQNYIYPFTFGGGTKLEIKRTVAAPSVFIFPPSDEQLKSGTASVVCLLNNFYPREAKVQWKVDNALQSGNSQESVTEQDSKDSTYSLSSTLTLSKADYEKHKVYACEVTHQGLSSPVTKSFNRGEC
notes: Printed mostly as 'HOLO-IgG4' (letter O for zero); also called HOLO-IgG4; chimeric antibody
B3: the results for the IC50 in test [5] and in test [3] were 0.881 µg/mL and 0.396 µg/mL, respectively. Moreover, the EC50 in test [6] was determined as 0.0867 µg/mL; in test [4] it was 0.105 µg/mL.

B4: humanized anti-TrkA monoclonal antibody H3L1-IgG4 (antibody, V domains shown)
VH: EVQLLESGGGLVQPGGSLKLSCKASGYAFTNYWLGWMKQRPGHGLEWIGDFYPRTGNTFYNENFKGQVTMSVDKSITTAYLQWNSLKASDTAMYYCARAGTGFDYWGQGTTLTVSS
VL: EIVMTQSPATLSLSVGERVTLSCKASENVGGYVSWYQQKPDQSPKLLIYGASSRHTGVPDRFTGSGSETDFTLTISSVQAEDLAAYHCGQNYIYPFTFGGGTKLEIKR
Take B4: the results for the IC50 in test [5] and in test [3] were 0.741 µg/mL and 0.283 µg/mL, respectively. Moreover, the values for the EC50 in test [6] and in test [4] were 0.127 µg/mL and 0.111 µg/mL, respectively.

B5: humanized anti-TrkA monoclonal antibody H3L2-IgG4 (antibody, V domains shown)
VH: EVQLLESGGGLVQPGGSLKLSCKASGYAFTNYWLGWMKQRPGHGLEWIGDFYPRTGNTFYNENFKGQVTMSVDKSITTAYLQWNSLKASDTAMYYCARAGTGFDYWGQGTTLTVSS
VL: EIVMTQSPATLSLSVGERVTLSCKASENVGGYVSWYQQKPDQSPKLLIYGASSRATGVPDRFTGSGSETDFTLTISSVQAEDLAAYHCGQNYIYPFTFGGGTKLEIKR
With B5, the IC50 is 0.665 µg/mL in test [5] and 0.252 µg/mL in test [3]. For the same molecule, the results for the EC50 in test [6] and in test [4] were 0.168 µg/mL and 0.125 µg/mL, respectively.
